Data set [1] is described as follows: in vivo. The following applies: female, SD, rat, iv, 5 mg/kg.
The conditions of data set [2]: SD rats; for F: oral 50 mg/kg versus intravenous 10 mg/kg.
Data set [3] deals with ICR mice. The following applies: mouse, in vivo, iv.
Where [4] appears, read: intravenous administration, 10 mg/kg.

A word on the Vss: it is the apparent volume that relates the amount in the body to the concentration in plasma or blood. Read a high Vss as wide distribution into tissue. Broadly, the Vz is a proportionality between amount in the body and measured concentration, not a real space. The Tmax is the time from dosing to the highest level.

Like-named read-outs stand apart in the source and are kept apart here.

Regarding `CN1CC[C@]23c4c5ccc(O)c4O[C@H]2[C@@H](OCCOCCO[C@H]2C=C[C@H]4[C@H]6Cc7ccc(O)c8c7[C@@]4(CCN6C)[C@H]2O8)C=C[C@H]3[C@H]1C5` [α-6-O-PEG2-(morphine)2], in data set [1], the level at 10 min was determined as 1210 ng/mL, the level at 1 h is 123 ng/mL, the level at 3 h was 43 ng/mL and the tissue level at time at 10 min worked out at 554 ng/g. Further, in data set [1], the tissue level at time at 1 h is 342 ng/g and the tissue level at time at 3 h was 221 ng/g. In data set [2] (setting [4]), this compound yielded an AUCINF of 107 ng·h/mL, an AUClast of 90 ng·h/mL, a CL of 307 mL/min/k g and an MRTINF of 2.08 h. In data set [2] (setting [4]), this compound came in with a T1/2 of 2.88 h, a distribution volume (Vss) of 37.2 L/kg and a Vz of 52.1 L/kg. The compound further displayed a F in data set [2] of 4.8%. In addition, in data set [2] (oral administration, 50 mg/kg), the AUCINF is 35 ng·h/mL, the AUClast came to 27 ng·h/mL, the Cmax worked out at 18 and the T1/2 was 4.0 h. In data set [2] (oral administration, 50 mg/kg), the Tmax was 2 h.
In data set [1], `CN1CC[C@]23c4c5ccc(O)c4O[C@H]2[C@@H](OCCOCCOCCOCCO[C@H]2C=C[C@H]4[C@H]6Cc7ccc(O)c8c7[C@@]4(CCN6C)[C@H]2O8)C=C[C@H]3[C@H]1C5` [α-6-O-PEG4-(morphine)2] returned a level at 10 min of 1120 ng/mL, a level at 1 h of 114 ng/mL, a level at 3 h of 42 ng/mL and a tissue level at time at 10 min of 226 ng/g. In data set [1], this compound came in with a tissue level at time at 1 h of 198 ng/g and a tissue level at time at 3 h of 164 ng/g. Moreover, the “Number of Writhing” value in data set [3] (10 mg/kg) is 20.1±2.3. In data set [2] (setting [4]), this compound showed an AUCINF of 137 ng·h/mL, an AUClast of 122 ng·h/mL, a CL of 238 mL/min/k g and an MRTINF of 6.12 h. In data set [2] (setting [4]), this compound displayed a T1/2 of 4.71 h, a distribution volume (Vss) of 64.3 L/kg and a Vz of 94.3 L/kg. Further, the F in data set [2] is listed as 17.1%. In data set [2] (oral administration, 50 mg/kg), the AUCINF stood at 81 ng·h/mL, the AUClast was determined as 70 ng·h/mL, the Cmax is 47 and the T1/2 worked out at 6.4 h. Also, the Tmax in data set [2] (oral administration, 50 mg/kg) was determined as 3 h.
As to `CN1CC[C@]23c4c5ccc(O)c4O[C@H]2[C@@H](OCCOCCOCCOCCOCCOCCOCCOCCO[C@H]2C=C[C@H]4[C@H]6Cc7ccc(O)c8c7[C@@]4(CCN6C)[C@H]2O8)C=C[C@H]3[C@H]1C5` [α-6-O-PEG8-(morphine)2], in data set [1], the level at 10 min worked out at 1230 ng/mL, the level at 1 h turned out to be 167 ng/mL, the level at 3 h turned out to be 90 ng/mL and the tissue level at time at 10 min was determined as 140 ng/g. Further, in data set [1], the tissue level at time at 1 h turned out to be 153 ng/g and the tissue level at time at 3 h is 127 ng/g. Also, in data set [2] (setting [4]), the AUCINF was 188 ng·h/mL, the AUClast turned out to be 162 ng·h/mL, the CL came out at 221 mL/min/k g and the MRTINF turned out to be 10.8 h. Moreover, in data set [2] (setting [4]), the T1/2 turned out to be 6.83 h, the distribution volume (Vss) is 84.7 L/kg and the volume of distribution (Vz) is on record as 125.2 L/kg. In addition, in data set [2], the F is listed as 7.6%. Besides, in data set [2] (oral administration, 50 mg/kg), the AUCINF came to 31 ng·h/mL, the AUClast was 22 ng·h/mL, the Cmax came out at 22 and the T1/2 is 5.2 h. In addition, in data set [2] (oral administration, 50 mg/kg), the Tmax is 3 h.
In data set [1], `CN1CC[C@]23c4c5ccc(O)c4O[C@H]2[C@@H](OCCO[C@H]2C=C[C@H]4[C@H]6Cc7ccc(O)c8c7[C@@]4(CCN6C)[C@H]2O8)C=C[C@H]3[C@H]1C5` [α-6-O-PEG1-(morphine)2] returned a level at 10 min of 891 ng/mL, a level at 1 h of 138 ng/mL, a level at 3 h of 38 ng/mL and a tissue level at time at 10 min of 687 ng/g. In data set [1], this compound displayed a tissue level at time at 1 h of 299 ng/g and a tissue level at time at 3 h of 183 ng/g. In data set [2] (setting [4]), this compound showed an AUCINF of 98 ng·h/mL, an AUClast of 83 ng·h/mL, a CL of 342 mL/min/k g and an MRTINF of 2.46 h. Moreover, in data set [2] (setting [4]), the T1/2 was determined as 2.59 h, the volume of distribution (Vss) is given as 47.3 L/kg and the Vz amounted to 72 L/kg. In data set [2], this compound returned an F of 3.7%. In data set [2] (oral administration, 50 mg/kg), this compound had an AUCINF of 92 ng·h/mL, an AUClast of 78 ng·h/mL, a Cmax of 56 and a T1/2 of 11 h. Besides, the Tmax in data set [2] (oral administration, 50 mg/kg) amounted to 1.0 h.
As for `COCCOCCOCCOCCOCCOCCO[C@H]1C=C[C@H]2[C@H]3Cc4ccc(O)c5c4[C@@]2(CCN3C)[C@H]1O5` [α-6-O-mPEG6-morphine, reference compound], in data set [3] (10 mg/kg), the “Number of Writhing” value is 15.3±3.4.
In data set [1], `CN1CC[C@]23c4c5ccc(O)c4O[C@H]2[C@@H](OCCOCCOCCOCCOCCO[C@H]2C=C[C@H]4[C@H]6Cc7ccc(O)c8c7[C@@]4(CCN6C)[C@H]2O8)C=C[C@H]3[C@H]1C5` [α-6-O-PEG5-(morphine)2] registered a level at 10 min of 926 ng/mL, a level at 1 h of 101 ng/mL, a level at 3 h of 51 ng/mL and a tissue level at time at 10 min of 125 ng/g. For the same compound, in data set [1], the tissue level at time at 1 h was 123 ng/g and the tissue level at time at 3 h amounted to 95 ng/g. For the same compound, in data set [2] (setting [4]), the AUCINF turned out to be 128 ng·h/mL, the AUClast stood at 109 ng·h/mL, the CL is given as 261 mL/min/k g and the MRTINF was determined as 3.52 h. In data set [2] (setting [4]), the T1/2 worked out at 3.71 h, the Vss was determined as 55.2 L/kg and the Vz was 84 L/kg. The compound further displayed a F in data set [2] of 28.2%. Also, in data set [2] (oral administration, 50 mg/kg), the AUCINF came out at 156 ng·h/mL, the AUClast is 129 ng·h/mL, the Cmax was determined as 75 and the T1/2 came to 7.8 h. In data set [2] (oral administration, 50 mg/kg), the time to peak (Tmax) is 2.0 h.
As for `CN1CC[C@]23c4c5ccc(O)c4O[C@H]2[C@@H](OCCOCCOCCOCCOCCOCCOCCOCCOCCO[C@H]2C=C[C@H]4[C@H]6Cc7ccc(O)c8c7[C@@]4(CCN6C)[C@H]2O8)C=C[C@H]3[C@H]1C5` [α-6-O-PEG9-(morphine)2], in data set [1], the level at 10 min turned out to be 1230 ng/mL, the level at 1 h was determined as 201 ng/mL, the level at 3 h was 101 ng/mL and the tissue level at time at 10 min worked out at 152 ng/g. For the same compound, in data set [1], the tissue level at time at 1 h was 125 ng/g and the tissue level at time at 3 h is 123 ng/g. For the same compound, in data set [2] (setting [4]), the AUCINF was 259 ng·h/mL, the AUClast was 221 ng·h/mL, the CL came to 166 mL/min/k g and the MRTINF was 7.91 h. In addition, in data set [2] (setting [4]), the T1/2 is 8.33 h, the volume of distribution (Vss) turned out to be 60.1 L/kg and the Vz is given as 92 L/kg. The compound further gave a F in data set [2] of 5.2%. In data set [2] (oral administration, 50 mg/kg), this compound yielded an AUCINF of 17 ng·h/mL, an AUClast of 11 ng·h/mL, a Cmax of 11 and a T1/2 of 11.5 h. In addition, the Tmax in data set [2] (oral administration, 50 mg/kg) stood at 3.0 h.
In data set [1], `COc1ccc2c3c1O[C@H]1[C@@H](OCCOCCOCCOCCOCCOCCO[C@H]4C=C[C@H]5[C@H]6Cc7ccc(OC)c8c7[C@@]5(CCN6C)[C@H]4O8)C=C[C@H]4[C@@H](C2)N(C)CC[C@@]341` [α-6-O-PEG6-(codeine)2] yielded a level at 10 min of 1740 ng/mL, a level at 1 h of 445 ng/mL, a level at 3 h of 67 ng/mL and a tissue level at time at 10 min of 102 ng/g. In data set [1], the tissue level at time at 1 h was 100 ng/g and the tissue level at time at 3 h was determined as 97 ng/g. The “Number of Writhing” value in data set [3] (30 mg/kg) came out at 34.1±3.3.
On to `CN1CC[C@]23c4c5ccc(O)c4O[C@H]2[C@@H](OCCOCCOCCO[C@H]2C=C[C@H]4[C@H]6Cc7ccc(O)c8c7[C@@]4(CCN6C)[C@H]2O8)C=C[C@H]3[C@H]1C5` [α-6-O-PEG3-(morphine)2], for which, in data set [1], the level at 10 min stood at 1020 ng/mL, the level at 1 h was determined as 119 ng/mL, the level at 3 h was determined as 32 ng/mL and the tissue level at time at 10 min came out at 387 ng/g. Moreover, in data set [1], the tissue level at time at 1 h was determined as 262 ng/g and the tissue level at time at 3 h amounted to 167 ng/g. Besides, in data set [2] (setting [4]), the AUCINF came out at 112 ng·h/mL, the AUClast came out at 104 ng·h/mL, the CL was determined as 296 mL/min/k g and the MRTINF turned out to be 2.18 h. In data set [2] (setting [4]), the T1/2 came to 2.31 h, the Vss came to 27.8 L/kg and the Vz came to 43 L/kg. Further, the F in data set [2] was found to be 3.2%. Moreover, in data set [2] (oral administration, 50 mg/kg), the AUCINF came out at 18 ng·h/mL, the AUClast was determined as 15 ng·h/mL, the Cmax was found to be 12 and the T1/2 worked out at 5.1 h. Moreover, the Tmax in data set [2] (oral administration, 50 mg/kg) was found to be 2 h.
In the case of `CN1CC[C@]23c4c5ccc(O)c4O[C@H]2[C@@H](OCCOCCOCCOCCOCCOCCOCCO[C@H]2C=C[C@H]4[C@H]6Cc7ccc(O)c8c7[C@@]4(CCN6C)[C@H]2O8)C=C[C@H]3[C@H]1C5` [α-6-O-PEG7-(morphine)2], in data set [1], the level at 10 min came to 1170 ng/mL, the level at 1 h was 117 ng/mL, the level at 3 h stood at 71 ng/mL and the tissue level at time at 10 min was found to be 177 ng/g. Moreover, in data set [1], the tissue level at time at 1 h turned out to be 111 ng/g and the tissue level at time at 3 h is 105 ng/g.
As for `COCCOCCOCCOCCO[C@H]1C=C[C@H]2[C@H]3Cc4ccc(O)c5c4[C@@]2(CCN3C)[C@H]1O5` [α-6-O-mPEG4-morphine, reference compound], the “Number of Writhing” value in data set [3] (10 mg/kg) came out at 12.1±2.3.
As for `COc1ccc2c3c1O[C@H]1[C@@H](OCCOCCOCCOCCO[C@H]4C=C[C@H]5[C@H]6Cc7ccc(OC)c8c7[C@@]5(CCN6C)[C@H]4O8)C=C[C@H]4[C@@H](C2)N(C)CC[C@@]341` [α-6-O-PEG4-(codeine)2], in data set [1], the level at 10 min was determined as 1660 ng/mL, the level at 1 h was found to be 233 ng/mL, the level at 3 h was 43 ng/mL and the tissue level at time at 10 min amounted to 121 ng/g. Also, in data set [1], the tissue level at time at 1 h was 110 ng/g and the tissue level at time at 3 h was 107 ng/g. The “Number of Writhing” value in data set [3] (30 mg/kg) is reported as 31.3±4.1.

These data come from patent EP3409295A1 (priority 2016, dated 2017).
